Entries after “also recorded” stand apart in the source; their conditions may differ.
Experiments:
[1] = test system: GFP-c-Jun; test: Cycloheximide (CHX) chase of GFP-c-Jun stability; type: cell-based, human; details: 50 μM CHX for up to 12 h, HEK 293T cells
Protocol: HEK 293T cells were transiently transfected with indicated plasmids and treated with DMSO, or Ac45SGlcNAc, or Thiamet-G at the same time if needed. 36-48 h after the transfection, cells were incubated with 50 μM CHX for up to 12 h. At the indicated time points, cells were harvested and lysed with M-PER lysis buffer. Protein expression and global O-GlcNAc level were determined by immunoblot assays. GAPDH protein level was used as the internal loading control.

[2] = biological target: T1, OGT with C-terminal His tag (human, UniProt O15294 1-1046, limits assumed); test: co-immunoprecipitation with beads against the His tag of OGT from HEK 293T lysates, immunoblot
T1 construct: also called OGT-His; pCMV3-OGT-His; not shown: C-terminal His tag
T1 sequence (looked up): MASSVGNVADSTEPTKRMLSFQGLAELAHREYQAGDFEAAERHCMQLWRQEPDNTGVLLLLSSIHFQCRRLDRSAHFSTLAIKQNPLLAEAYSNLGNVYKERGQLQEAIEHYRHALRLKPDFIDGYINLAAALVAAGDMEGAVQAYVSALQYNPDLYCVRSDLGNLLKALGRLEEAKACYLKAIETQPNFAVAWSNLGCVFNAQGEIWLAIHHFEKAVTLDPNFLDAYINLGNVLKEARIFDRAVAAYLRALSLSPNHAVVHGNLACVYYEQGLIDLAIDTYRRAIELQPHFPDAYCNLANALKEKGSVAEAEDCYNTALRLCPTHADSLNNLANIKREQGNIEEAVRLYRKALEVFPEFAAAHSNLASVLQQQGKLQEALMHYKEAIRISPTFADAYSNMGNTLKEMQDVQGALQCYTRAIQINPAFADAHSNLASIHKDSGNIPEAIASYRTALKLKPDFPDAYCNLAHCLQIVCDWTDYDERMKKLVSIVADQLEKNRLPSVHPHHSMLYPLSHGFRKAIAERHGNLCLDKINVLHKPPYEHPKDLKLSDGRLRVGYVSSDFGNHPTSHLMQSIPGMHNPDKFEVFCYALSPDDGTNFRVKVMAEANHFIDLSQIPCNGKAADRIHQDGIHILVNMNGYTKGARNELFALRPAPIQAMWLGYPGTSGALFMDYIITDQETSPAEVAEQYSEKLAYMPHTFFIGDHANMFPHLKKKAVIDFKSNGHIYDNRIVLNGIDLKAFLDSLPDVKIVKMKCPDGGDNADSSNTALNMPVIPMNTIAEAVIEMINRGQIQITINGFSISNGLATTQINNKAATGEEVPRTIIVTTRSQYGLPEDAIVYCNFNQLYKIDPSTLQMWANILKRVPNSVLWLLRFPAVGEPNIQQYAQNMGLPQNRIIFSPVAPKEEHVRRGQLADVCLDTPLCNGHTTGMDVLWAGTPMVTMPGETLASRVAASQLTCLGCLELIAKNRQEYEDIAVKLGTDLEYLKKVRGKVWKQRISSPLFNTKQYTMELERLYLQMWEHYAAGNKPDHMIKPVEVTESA
Protocol: Overexpressed OGT and its interacting proteins were co-immunoprecipitated by beads against His tag. Whole cell lysates and co-immunoprecipitated proteins were analyzed by immunoblotting assays using the indicated antibodies. Anti-myc and anti-HA blots detect expression of full-length OGA (fl-OGA), N-terminal fragment, and C-terminal fragment, respectively. The data are representative of two biological replicates.
For immunoprecipitation of proteins with His tag, cells were lysed in a buffer containing 50 mM Tris HCl pH 8.0, 150 mM NaCl, 1% Triton X-100, 5% glycerol, 1× protease inhibitor cocktail and 10 μM Thiamet-G on ice for 20 min. Cell lysates with equal amounts of protein were diluted with wash buffer (50 mM Tris HCl pH 8.0, 150 mM NaCl, 0.01% Tween-20) and incubated with pre-washed His-Tag Dynabeads (Invitrogen, 10103D) at room temperature for 20 min with mixing, following the manufacturer's instructions. After washed 4 times with wash buffer, the enriched proteins were eluted with elution buffer (300 mM Imidazole, 50 mM Tris HCl pH 8.0, 150 mM NaCl, 0.01% Tween-20) on a shaker for 10 min at room temperature.

[3] = test system: O-GlcNAcylated proteome; test: Quantitative TMT mass spectrometry of enriched O-GlcNAcylated proteome; type: cell-based, human; details: co-expression of GFP-Nup62, versus inactive nGFP-splitOGA(D174N), n=2
Protocol: Purification of GalT1 (Y289L) enzyme and labeling of O-GlcNAcylated proteins with GalNAz were performed according to the procedure of Hsieh-Wilson and co-workers (Thompson, J. W., Griffin, M. E. & Hsieh-Wilson, L. C. Methods for the Detection, Study, and Dynamic Profiling of O-GlcNAc Glycosylation. Methods Enzymol. 2018, 598, 101-135). Briefly, cell samples in 6-well plates or 15-cm dishes were harvested and washed by PBS once. The lysis buffer (PBS with 2% SDS) was added into cell pellets and heated for 5 min at 95° C., followed by the sonication to sheer DNA. Protein concentrations were determined by BCA assay. Cell lysates were reduced and alkylated with 25 mM DTT at 95° C. for 5 min and 50 mM iodoacetamide at room temperature for 1 h respectively. Proteins were precipitated by the methanol/chloroform solution (aqueous phase:CH3OH:CHCl3=4:4:1) and resuspended in 1% SDS, 20 mM HEPES (pH 7.9) buffer with a concentration of 3.75 mg/mL. For 150 μg proteins, H2O (49 μL), 2.5×GalT labeling buffer (80 μL, final concentrations: 50 mM NaCl, 20 mM HEPES, 2% NP-40, pH 7.9), 100 mM MnCl2 (11 μL), 500 μM UDP-GalNAz (10 μL), 2 mg/mL GalT1 (Y289L) (10 μL) were added into cell lysates orderly. […]
For quantitative proteomics, after reaction with Biotin-Alkyne probe, proteins were precipitated and resuspended in 400 μL PBS containing 2% SDS. […]

[4] = test system: endogenous CREB; test: Mass shift assay of O-GlcNAcylation on endogenous CREB (off-target marker); type: cell-based, human; details: untargeted off-target marker, HEK 293T cells
Protocol: (§1) For immunoblotting analysis, proteins were transferred to a nitrocellulose membrane using iBlot (Thermo Scientific). Membranes were blocked with Tris buffered saline containing 0.1% Tween-20 and 5% BSA and incubated with the primary antibodies (1:1000 dilution) and the secondary antibodies (1:10,000 dilution) sequentially. Immunoblot images were captured by Azure Imager C600. Analysis of immunoblots was conducted with Fiji ImageJ. All IR fluorescence western blot images are converted into grayscale images by Fiji ImageJ. The unsaturated exposure of immunoblot images was used for quantification with the appropriate loading controls as standards. Statistical analysis of the data was performed with Prism 8, using data from at least three independent experiments.
Purification of GalT1 (Y289L) enzyme and labeling of O-GlcNAcylated proteins with GalNAz were performed according to the procedure of Hsieh-Wilson and co-workers (Thompson, J. W., Griffin, M. E. & Hsieh-Wilson, L. C. Methods for the Detection, Study, and Dynamic Profiling of O-GlcNAc Glycosylation. Methods Enzymol. 2018, 598, 101-135). Briefly, cell samples in 6-well plates or 15-cm dishes were harvested and washed by PBS once. The lysis buffer (PBS with 2% SDS) was added into cell pellets and heated for 5 min at 95° C., followed by the sonication to sheer DNA. Protein concentrations were determined by BCA assay. […]

[5] = test system: global O-GlcNAcylation; test: Global O-GlcNAcylation level in whole cell lysate, anti-O-GlcNAc (RL2) immunoblot; type: cell-based, human; details: HEK 293T whole cell lysate; OSMI-4b 25 μM for 30 h
Protocol: After 36-48 h of transfection, cells were harvested and washed with PBS once. Cells were lysed with M-PER lysis buffer containing 1× protease inhibitor cocktail and 10 μM Thiamet-G unless otherwise noted. Protein concentrations were determined by the BCA assay kit (G-Biosciences, 786) on a multi-mode microplate reader FilterMax F3 (Molecular Devices LLC, Sunnyvale, CA).
as §1

How did the “stability / degradation of GFP-c-Jun” value [1] turn out when `CCN=C1N[C@@H]2[C@@H](O)[C@H](O)[C@@H](CO)O[C@@H]2S1` [Thiamet-G] was run?
The value was “attenuated; also recorded: enhanced”.

B1: split OGA (N2+C3) (enzyme)
chain 1: MEQKLISEEDLAIAMVQKESQATLEERESELSSNPAASAGASLEPPAAPAPGEDNPAGAGGAAVAGAAGGARRFLCGVVEGFYGRPWVMEQRKELFRRLQKWELNTYLYAPKDDYKHRMFWREMYSVEEAEQLMTLISAAREYEIEFIYAISPGLDITFSNPKEVSTLKRKLDQVSQFGCRSFALLFDDIDHNMCAADKEVFSSFAHAQVSITNEIYQYLGEPETFLFCPTEYCGTFCYPNVSQSPYLRTVGEKLLPGIEVLWTGPKVVSKEIPVESIEEVSKIIKRAPVIWDNIHANDYDQKRLFLGPYKGRSTELIPRLKGVLTNPNCEFEANYVAIHTLATWYKSNMNGVRKDVVMTDSEDSTVSIQIKLENEGSDEDIETDVLYSPQMALKLALTEWLQEFGVPHQYSSR
chain 2: MAYPYDVPDYAAIAEKPLYTAEPVTLEDLQLLADLFYLPYEHGPKGAQMLREFQWLRANSSVVSVNCKGKDSEKIEEWRSRAAKFEEMCGLVMGMFTRLSNCANRTILYDMYSYVWDIKSIMSMVKSFVQWLGCRSHSSAQFLIGDQEPWAFRGGLAGEFQRLLPIDGANDLFFQPP
notes: Two co-expressed fragments
Does B1 bind [2]?
Result: no binding

B2: fl-OGA: Full length OGA with a myc tag (SEQ ID NO: 1) (protein)
chain: MASMQKLISEEDLLMAMEARIRSTVQKESQATLEERESELSSNPAASAGASLEPPAAPAPGEDNPAGAGGAAVAGAAGGARRFLCGVVEGFYGRPWVMEQRKELFRRLQKWELNTYLYAPKDDYKHRMFWREMYSVEEAEQLMTLISAAREYEIEFIYAISPGLDITFSNPKEVSTLKRKLDQVSQFGCRSFALLFDDIDHNMCAADKEVFSSFAHAQVSITNEIYQYLGEPETFLFCPTEYCGTFCYPNVSQSPYLRTVGEKLLPGIEVLWTGPKVVSKEIPVESIEEVSKIIKRAPVIWDNIHANDYDQKRLFLGPYKGRSTELIPRLKGVLTNPNCEFEANYVAIHTLATWYKSNMNGVRKDVVMTDSEDSTVSIQIKLENEGSDEDIETDVLYSPQMALKLALTEWLQEFGVPHQYSSRQVAHSGAKASVVDGTPLVAAPSLNATTVVTTVYQEPIMSQGAALSGEPTTLTKEEEKKQPDEEPMDMVVEKQEETDHKNDNQILSEIVEAKMAEELKPMDTDKESIAESKSPEMSMQEDCISDIAPMQTDEQTNKEQFVPGPNEKPLYTAEPVTLEDLQLLADLFYLPYEHGPKGAQMLREFQWLRANSSVVSVNCKGKDSEKIEEWRSRAAKFEEMCGLVMGMFTRLSNCANRTILYDMYSYVWDIKSIMSMVKSFVQWLGCRSHSSAQFLIGDQEPWAFRGGLAGEFQRLLPIDGANDLFFQPPPLTPTSKVYTIRPYFPKDEASVYKICREMYDDGVGLPFQSQPDLIGDKLVGGLLSLSLDYCFVLEDEDGICGYALGTVDVTPFIKKCKISWIPFMQEKYTKPNGDKELSEAEKIMLSFHEEQEVLPETFLANFPSLIKMDIHKKVTDPSVAKSMMACLLSSLKANGSRGAFCEVRPDDKRILEFYSKLGCFEIAKMEGFPKDVVILGRSL
modifications: myc tag
How did the “change of enriched O-GlcNAcylated protein abundance (global proteome)” value [3] turn out when B2 was run?
Its value is “globally decreased O-GlcNAcylated proteins”.

What about the “O-GlcNAcylation level on endogenous CREB” value [4] of the same molecule?
The value was “reduced O-GlcNAc on CREB and the whole proteome”.

And the “global O-GlcNAcylation level” value [5]?
Its value is “global reduction of O-GlcNAc; also recorded: reduced O-GlcNAc on CREB and the whole proteome”.

Reference: patent publication US20240043528A1, “NANOBODY-OGA FUSIONS AND USES THEREOF” (President and Fellows of Harvard College, priority 2020, published 2024)
